Measurements as given in PMC9468479.

Target: SARS-CoV-2 Omicron spike protein (SARS-CoV-2 B.1.1529 spike protein) (SARS-CoV-2 (Omicron)) (UniProt P0DTC2)
Assay: SPR

Urtica dioica agglutinin (UDA) (natural protein)
Kd: 11 nM
